According to US6645738B1, “DNA molecules encoding the melanocortin 5 receptor protein from rhesus monkey” (Merck & Co., Inc., priority 1998, dated 2003):
Read-outs that look alike come from different tables or passages of the source.

T1: rhesus monkey (Macaca mulatta) melanocortin-5 receptor (rhesus monkey (Macaca mulatta), UniProt P33032 1-325 (human entry))
T1 construct: Full-length open reading frame (325 amino acids) in pcDNA3.neo, stably expressed in CHO dhfr- cells; assays on whole cells; also called rhMC-5R; rhesus MC-5R
T1 chain: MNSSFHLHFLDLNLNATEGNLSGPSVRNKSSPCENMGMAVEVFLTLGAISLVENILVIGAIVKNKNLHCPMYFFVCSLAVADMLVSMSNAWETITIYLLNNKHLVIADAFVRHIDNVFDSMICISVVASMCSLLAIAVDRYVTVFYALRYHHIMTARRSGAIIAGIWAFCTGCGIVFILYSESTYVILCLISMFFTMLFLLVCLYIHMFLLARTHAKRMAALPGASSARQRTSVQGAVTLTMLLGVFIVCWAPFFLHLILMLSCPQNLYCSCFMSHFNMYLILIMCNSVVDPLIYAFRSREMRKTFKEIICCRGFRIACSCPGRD


Key:
rhesus MC-5R [1] = format: cell-based, rhesus monkey (Macaca mulatta); details: for EC50: read-out: EC50, nM rhMC-5R
Protocol: (§1) To determine the functional activation of receptors, stably transfected CHO cells were washed once with PBS without Ca^++/Mg^++, dissociated by non-enzymatic dissociation medium (Specialty Media, Inc.) at 37° C. for 10 min. Dissociated cells were resuspended in EBSS buffer containing 25 mM Hepes, 5 mM MgCl2, 0.1% BSA and 50 mM IBMX and incubated with agonist at room temperature for 45 min. The agonist activation was terminated by boiling for 4 min.
(§2) A cDNA encoding human MC-5R subcloned into the pIRES1neo expression vector (Clontech) and stably transfected into CHO cells was used as a reference for the pharmacological properties of the rhesus MC-5R. Single clones were used in all pharmacological studies as described above. The functional properties of rhMC-5R were determined by heterologous expression in CHO cells.

rhesus MC-5R [2] = format: binding, rhesus monkey (Macaca mulatta); details: read-out: IC50, nM rhMC-5R
Protocol: (§3) The receptor plasmid was transfected into CHO dhfr- cells using lipofectamin (GIBCO). Transfected cells were selected by G418 for at least 2-3 weeks before binding and functional assays were performed. […] After incubation at room temperature for 3 hours, wells were washed 3 times by PBS, lysed in 0.5 ml of 0.05% SDS and counted by a gamma counter.
as §2

human MC-5R [3] = biological target: T2, human MC-5R (Homo sapiens, UniProt P33032); format: cell-based
T2 construct: expressed in transfected cells
T2 sequence (P33032 whole entry): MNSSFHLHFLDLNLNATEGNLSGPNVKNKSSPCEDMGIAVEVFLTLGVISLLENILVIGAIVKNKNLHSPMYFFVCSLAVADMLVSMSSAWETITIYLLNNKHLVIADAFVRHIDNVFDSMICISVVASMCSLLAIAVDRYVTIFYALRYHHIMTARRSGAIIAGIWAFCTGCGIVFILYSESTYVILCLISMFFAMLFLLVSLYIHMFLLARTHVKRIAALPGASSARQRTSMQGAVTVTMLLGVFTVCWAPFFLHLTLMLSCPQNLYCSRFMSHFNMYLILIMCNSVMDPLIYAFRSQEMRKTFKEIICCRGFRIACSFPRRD
Protocol: as §1
(§4) Single clones were used in all pharmacological studies as described above.
as §2

[4] = biological target: rhesus monkey (Macaca mulatta) melanocortin-5 receptor (rhesus monkey (Macaca mulatta)); experiment: displacement of 0.1 nM 125I-NDP-α-MSH from CHO cells stably expressing rhMC-5R
[5] = biological target: rhesus monkey (Macaca mulatta) melanocortin-5 receptor (rhesus monkey (Macaca mulatta)); experiment: cell-based or functional assay
[6] = biological target: T3, human melanocortin 5 receptor (human, UniProt P33032 1-325); experiment: displacement of 0.1 nM 125I-NDP-α-MSH from CHO cells stably expressing hMC-5R
[7] = biological target: T3, human melanocortin 5 receptor; experiment: cell-based or functional assay
human MC-5R [8] = biological target: T2, human MC-5R; format: binding
Protocol: as §3, §4, §2

[9] = biological target: T1, rhesus monkey (Macaca mulatta) …; experiment: displacement of 0.1 nM 125I-NDP-α-MSH from CHO cells stably expressing rhMC-5R
Protocol: as §3, with “dhfr-cells” for “dhfr- cells”, “2–3” for “2-3”

[10] = biological target: T1, rhesus monkey (Macaca mulatta) …; experiment: cell-based or functional assay

Molecule	Maximal response (%) rhMC-5R (rhesus MC-5R [1])	EC50 (rhesus MC-5R [1])	IC50 (rhesus MC-5R [2])	IC50 [4]	EC50, nM (cAMP synthesis in CHO cells) [5]	Maximal response (%) [5]	EC50, nM (cAMP synthesis in CHO cells) [7]	Maximal response (%) [7]	other results
NDP-α-MSH	100%	0.02 ± 0.01 nM	0.2 ± 0.1 nM						
MT-II [MTII]	100%	0.02 ± 0.01 nM	5 ± 0.2 nM						Agonist character at human MC-5R (in words) (human MC-5R [3]): partial agonists; Maximal response (%) hMC-5R (human MC-5R [3]): 85%
Shu-9119 (peptide)				20 pM	0.007 nM	100%	0.03 nM	100%	IC50 [6]: 400 pM
α-MSH	100%	0.2 ± 0.1 nM							Apparent binding affinity for the human MC-5R (in words) (human MC-5R [8]): very low apparent binding affinity
NDP-α-MSH (peptide)				200 pM	0.02 nM	100%	0.3 nM	100%	IC50 [6]: 500 pM
MT-II (peptide)				5000 pM	0.02 nM	100%	0.8 nM	85%	
γ2-MSH	100%								Agonist character at human MC-5R (in words) (human MC-5R [3]): partial agonists; Maximal response (%) hMC-5R (human MC-5R [3]): 80%
human ACTH(1-24) [ACTH1-24]			15 ± 1 nM						Maximal response (%) rhMC-5R (rhesus MC-5R [1]; cAMP response, CHO cells): 100%; EC50 (rhesus MC-5R [1]; intracellular cAMP, CHO cells, agonist 45 min at room temperature): 0.2 ± 0.1 nM; Maximal response (%) hMC-5R (human MC-5R [3]; cAMP response, CHO cells): 100%
SYSMEHFRWGKPVGKKRRPVKVYP (peptide, UniProt P01189 138-161, looked up, range 138-161) [human ACTH(1-24)]							5 nM	100%	IC50 [9]: 15000 pM; EC50, nM (cAMP synthesis in CHO cells) [10]: 0.2 nM; Maximal response (%) [10]: 100%
